{"source": "patent US20110271408A1", "target": "HAB1 (PP2C used in the in vitro phosphatase activity assays) (UniProt Q9CAJ0)", "sequence (Q9CAJ0 23-511 limits assumed)": "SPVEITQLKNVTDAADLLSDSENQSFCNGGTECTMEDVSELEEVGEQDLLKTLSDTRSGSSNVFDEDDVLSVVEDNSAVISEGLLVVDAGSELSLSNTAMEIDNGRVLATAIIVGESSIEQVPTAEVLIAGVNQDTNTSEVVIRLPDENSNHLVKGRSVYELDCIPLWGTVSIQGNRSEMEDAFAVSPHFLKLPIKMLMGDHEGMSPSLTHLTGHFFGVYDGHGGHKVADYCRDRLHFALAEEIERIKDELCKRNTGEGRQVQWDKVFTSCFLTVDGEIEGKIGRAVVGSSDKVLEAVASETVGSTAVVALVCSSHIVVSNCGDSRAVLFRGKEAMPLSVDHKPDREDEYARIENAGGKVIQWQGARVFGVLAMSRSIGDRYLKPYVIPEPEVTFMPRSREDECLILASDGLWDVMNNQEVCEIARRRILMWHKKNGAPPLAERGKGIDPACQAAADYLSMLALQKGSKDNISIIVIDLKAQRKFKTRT", "experiment": "cell-based or functional assay", "data": [{"substance": "PYR1 K59R, Y120H, M158I triple mutant (recombinant protein) (from UniProt O49686 1-191) (receptor)", "values": [{"measurement": "in vitro receptor assay (PP2C activity, 2:1 receptor to phosphatase); IC50 of fenhexamid", "value": 400, "unit": "nM"}]}]}
